Measured values from article PMC9777161 (2022).

T1: Cytochrome c oxidase (Bos taurus, UniProt P68530)
T1 chain: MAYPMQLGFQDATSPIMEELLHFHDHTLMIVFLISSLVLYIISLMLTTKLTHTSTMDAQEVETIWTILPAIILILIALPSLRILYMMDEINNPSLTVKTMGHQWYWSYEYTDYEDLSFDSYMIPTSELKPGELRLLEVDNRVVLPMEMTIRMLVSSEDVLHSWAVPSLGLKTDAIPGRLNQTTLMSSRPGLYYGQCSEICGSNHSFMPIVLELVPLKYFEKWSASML

T2: Cytochrome c oxidase (Bos taurus, UniProt P68530)
T2 chain: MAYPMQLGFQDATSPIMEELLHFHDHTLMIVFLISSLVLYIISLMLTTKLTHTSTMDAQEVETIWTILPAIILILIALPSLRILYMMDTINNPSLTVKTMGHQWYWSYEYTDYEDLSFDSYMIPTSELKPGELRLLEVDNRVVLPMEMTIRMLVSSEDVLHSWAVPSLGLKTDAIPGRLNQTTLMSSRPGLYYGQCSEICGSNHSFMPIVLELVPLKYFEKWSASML


Tests used:
Cytochrome c oxidase [1] = target: T1, Cytochrome c oxidase; assay: analytical ultracentrifugation
Cytochrome c oxidase [2] = target: T1, Cytochrome c oxidase; assay: laser flash photolysis
Cytochrome c oxidase [3] = target: T2, Cytochrome c oxidase; assay: analytical ultracentrifugation

| Kd (Cytochrome c oxidase [1]) | Kd (Cytochrome c oxidase [2]) | Kd (Cytochrome c oxidase [3]) | Binder |
| --- | --- | --- | --- |
| 28.4 µM | – | – | Cytochrome c (protein) not shown [Cytochrome c, listing 1 of 2 here] |
| – | 8 µM | – | Ru-39-Cytochrome c (protein, (dimethylbipyridine)(bisbipyridine)ruthenium at Cys-39) not shown |
| 4.7 µM | – | 2.1 µM | Cytochrome c (protein) not shown [Cytochrome c, listing 2 of 2 here] |
